Measurements published in patent publication US20260347495 (published 2026).

B1: OMT36 (clone 36) (antibody, V domains shown)
VH: QVQLVQSGAEVKKPGASVKVSCKASGYTFTNYDINWVRQATGQGLEWMGWMNPNSGNTDYVQKFQGRVAMTRITSISTAYLELSSLRSDDTAVYYCARGLHSGDYYSYGMDVWGQGTTVTVSS
VL: SYELTQPPSVSVSPGQTARITCSGDALPNQYAYWYQQKPGQAPVLVIYKDSERPSGIPERFSGSSSGTTVTLTISGVQAEDEADYYCQSADSSGTVVFGGGTKLSVL
B2: OMT8 (clone 8) (antibody, V domains shown)
VH: QVQLQESGPGLVKPSQTLSLTCTVSGGSISSGGYYWSWIRQHPGKGLEWIGYIHYIGSTYQNPSLKSRVTMSVDTSKNQFSLRLTSVTAADTAVYYCARESGDTAMVFDYWGQGTQVTVSS
VL: QSALTQPPSASGSPGQSVTISCTGTSSDVGGYNYVSWYQQHPGKAPKVMIYEVSTRPSGVPDRFSGSKSGNTASLTVSGLQAEDEADYYCSSYAGNNNFVFGTGTKVTVL
B3: OMT35 (clone 35) (antibody, V domains shown)
VH: QVQLQQSGPGLVKPSQTLSLTCAISGDSVSSNSAAWNWIRQSPSSGLEWLGRTYYRSKWFDDYAVSVKGRITINPDTSKNQFSLQLKFVIPEDTAVYYCARRVHWGGPFDYWGQGTLVTVSS
VL: DIQLTQSPSFLSASVGDRVTITCRASQGISSYLAWYQQRPGKAPKVLISVASTLQSGVPSRFSGSGSGTDFTLTISSLQPEDFATYYCQQLTGYPFTFGPGTKVDIK
B4: OMT30 (clone 30) (antibody, V domains shown)
VH: QVQLVESGGGVVQPGRSLRLSCAASGFTFSSYGIHWVRQAPGKGLEWVAVIWYDGSNKYYADSVKGRFTISRDNSKNTLYLQMNSLRAEDTAVYYCARRGDSSSWHFDYWGQGTLVTVSS
VL: QSALTQPASVSGSPGQSITISCTGTSSDVGRHNLVSWYQQHPGKVPKVMIYEVTKRPAGVSNRFSGSKSGNTASLTISGLQAEDEADYYCCSYAGSSTYVFGTGTRVTVL
B5: OMT24 (clone 24) (antibody, V domains shown)
VH: QVQLVQSGSELKKPGASVKVSCKASGYTFTTYVMNWVRQAPGQGLEWMGWINTNTGNPTYAQGFTGRFVFSVDTSVSTAYLQISSLKAEDTAVYYCARDRVLLWFGAGYYHYGMDVWGQGTTVTVSS
VL: SSELTQDPAVSVALGQTVRITCQGDSLRSYYTSWYQQKPGQAPVFVIYGKNNRPSGIPDRFSGSSSGNTASLTITGAQAEDEADYYCNSRDSSGNHVVFGGGTKLTVL

Experiments:
transferrin = transferrin (human, UniProt P02787); assay: ELISA
transferrin, sequence (P02787 20-698): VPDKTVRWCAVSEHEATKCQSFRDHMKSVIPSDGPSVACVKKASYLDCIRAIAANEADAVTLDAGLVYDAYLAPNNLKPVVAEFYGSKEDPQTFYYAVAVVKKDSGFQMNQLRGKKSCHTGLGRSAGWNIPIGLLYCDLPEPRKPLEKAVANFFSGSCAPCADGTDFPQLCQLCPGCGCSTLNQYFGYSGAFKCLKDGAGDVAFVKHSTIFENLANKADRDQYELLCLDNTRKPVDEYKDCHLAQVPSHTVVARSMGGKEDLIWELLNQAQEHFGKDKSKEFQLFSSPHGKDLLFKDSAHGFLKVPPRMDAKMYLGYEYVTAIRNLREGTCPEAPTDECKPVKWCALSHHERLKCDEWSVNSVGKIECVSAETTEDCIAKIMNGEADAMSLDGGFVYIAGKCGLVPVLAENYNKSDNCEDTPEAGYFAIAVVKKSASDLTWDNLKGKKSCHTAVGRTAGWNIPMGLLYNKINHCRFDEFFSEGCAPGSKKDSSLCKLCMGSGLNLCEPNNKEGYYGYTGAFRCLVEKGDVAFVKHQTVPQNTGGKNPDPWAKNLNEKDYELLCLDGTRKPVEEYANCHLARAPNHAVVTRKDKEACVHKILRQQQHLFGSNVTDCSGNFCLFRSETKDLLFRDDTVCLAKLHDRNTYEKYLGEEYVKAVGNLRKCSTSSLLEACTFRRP

lactotransferrin = lactotransferrin (human, UniProt P02788); assay: ELISA
lactotransferrin, sequence (P02788 20-710): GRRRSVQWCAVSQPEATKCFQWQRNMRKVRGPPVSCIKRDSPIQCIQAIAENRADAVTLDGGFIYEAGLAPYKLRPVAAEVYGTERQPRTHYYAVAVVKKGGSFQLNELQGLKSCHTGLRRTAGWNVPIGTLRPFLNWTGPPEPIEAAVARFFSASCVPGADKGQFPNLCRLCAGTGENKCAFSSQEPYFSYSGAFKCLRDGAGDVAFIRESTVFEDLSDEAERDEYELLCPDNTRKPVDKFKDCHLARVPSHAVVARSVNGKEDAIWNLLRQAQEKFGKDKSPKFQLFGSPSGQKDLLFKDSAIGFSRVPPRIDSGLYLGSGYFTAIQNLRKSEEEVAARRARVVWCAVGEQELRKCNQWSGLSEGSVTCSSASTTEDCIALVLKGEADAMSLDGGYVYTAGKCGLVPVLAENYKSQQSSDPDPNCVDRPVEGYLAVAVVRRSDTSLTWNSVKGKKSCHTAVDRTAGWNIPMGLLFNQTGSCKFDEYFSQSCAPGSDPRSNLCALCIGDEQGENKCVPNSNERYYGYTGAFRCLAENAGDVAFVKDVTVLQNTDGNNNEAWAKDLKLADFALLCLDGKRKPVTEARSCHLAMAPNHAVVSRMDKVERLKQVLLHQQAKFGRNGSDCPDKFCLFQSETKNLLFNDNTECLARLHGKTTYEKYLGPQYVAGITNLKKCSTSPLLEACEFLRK

Binder | binding result (transferrin) | binding result (lactotransferrin)
B1 | no binding | no binding
B2 | no binding | no binding
B3 | no binding | no binding
B4 | no binding | no binding
B5 | no binding | no binding
